From article PMC7156742, “RNA-DNA strand exchange by the Drosophila Polycomb complex PRC2”

Experiments:
[1] = target: PRC2 (UniProt P42124;Q24338;Q9NJG9;Q24572 1-760;1-425;1-900;1-430); assay: filter binding; 12 mM Hepes pH 7.9, 0.12 mM EDTA, 120 nM KCl (so in the source); probably mM), 1 mM DTT, 0.01% NP40, 12% glycerol, 0.01 nM probe, 30 min at 30 °C; EMSA plus 50 ng/uL BSA; details: protein: recombinant; tags: 6xHis-E(Z); FLAG on Esc or Su(Z)12; copies: 1;1;1;1; label: Cy5 or Cy3 on DNA R; 32P at unlabelled 5' ends; blunt
[2] = target: PRC1ΔPh (UniProt P35820;P26017;Q9VB08 1-1601;1-390;1-435); assay: as above; details: protein: recombinant; tags: FLAG; copies: 1;1;1; label: Cy5 or Cy3 on DNA R; 32P at unlabelled 5' ends; blunt
PRC1ΔPh, sequence (P35820 whole entry, stated change not applied, chain 1 of 3): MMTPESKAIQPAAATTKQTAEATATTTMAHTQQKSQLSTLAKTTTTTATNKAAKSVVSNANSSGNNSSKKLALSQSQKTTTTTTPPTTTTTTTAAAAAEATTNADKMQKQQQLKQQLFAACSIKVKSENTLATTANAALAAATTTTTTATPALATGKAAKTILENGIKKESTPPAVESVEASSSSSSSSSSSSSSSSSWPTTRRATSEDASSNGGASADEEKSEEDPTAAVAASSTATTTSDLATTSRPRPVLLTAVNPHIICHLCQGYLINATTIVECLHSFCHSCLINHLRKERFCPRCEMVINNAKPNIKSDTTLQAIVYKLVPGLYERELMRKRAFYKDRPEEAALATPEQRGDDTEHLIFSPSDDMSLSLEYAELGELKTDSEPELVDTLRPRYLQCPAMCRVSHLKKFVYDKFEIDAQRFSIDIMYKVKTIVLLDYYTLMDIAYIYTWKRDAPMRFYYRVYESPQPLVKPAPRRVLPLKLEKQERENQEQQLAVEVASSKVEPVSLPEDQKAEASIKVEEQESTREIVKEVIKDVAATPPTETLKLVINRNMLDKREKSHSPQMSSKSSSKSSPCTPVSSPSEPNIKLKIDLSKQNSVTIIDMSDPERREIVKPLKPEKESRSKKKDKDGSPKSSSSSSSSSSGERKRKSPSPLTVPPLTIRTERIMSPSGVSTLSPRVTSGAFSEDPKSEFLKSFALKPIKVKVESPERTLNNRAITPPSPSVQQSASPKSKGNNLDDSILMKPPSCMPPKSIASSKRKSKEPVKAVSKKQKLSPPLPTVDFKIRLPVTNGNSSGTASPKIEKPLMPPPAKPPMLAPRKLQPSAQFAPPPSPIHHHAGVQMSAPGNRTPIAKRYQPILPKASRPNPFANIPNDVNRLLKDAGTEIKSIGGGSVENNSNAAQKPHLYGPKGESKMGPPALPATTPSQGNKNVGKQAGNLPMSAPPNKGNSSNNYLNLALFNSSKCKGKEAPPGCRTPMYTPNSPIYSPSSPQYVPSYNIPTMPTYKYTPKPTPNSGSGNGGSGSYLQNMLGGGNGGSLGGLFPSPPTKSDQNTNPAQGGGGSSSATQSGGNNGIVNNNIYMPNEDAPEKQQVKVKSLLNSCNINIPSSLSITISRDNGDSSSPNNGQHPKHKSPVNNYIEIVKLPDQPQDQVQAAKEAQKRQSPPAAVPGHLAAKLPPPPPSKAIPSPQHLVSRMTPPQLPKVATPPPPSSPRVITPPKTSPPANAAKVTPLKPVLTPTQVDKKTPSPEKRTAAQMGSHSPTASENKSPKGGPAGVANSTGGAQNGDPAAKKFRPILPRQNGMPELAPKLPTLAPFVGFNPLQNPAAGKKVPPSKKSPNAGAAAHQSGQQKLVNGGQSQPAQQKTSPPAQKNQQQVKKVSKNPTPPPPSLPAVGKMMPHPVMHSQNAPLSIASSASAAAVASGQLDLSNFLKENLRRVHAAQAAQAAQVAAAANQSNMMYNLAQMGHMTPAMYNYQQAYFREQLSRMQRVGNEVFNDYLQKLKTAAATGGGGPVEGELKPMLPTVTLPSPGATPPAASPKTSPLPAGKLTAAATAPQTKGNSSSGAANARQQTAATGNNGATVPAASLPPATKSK
PRC1ΔPh, sequence (P26017 whole entry, stated change not applied, chain 2 of 3): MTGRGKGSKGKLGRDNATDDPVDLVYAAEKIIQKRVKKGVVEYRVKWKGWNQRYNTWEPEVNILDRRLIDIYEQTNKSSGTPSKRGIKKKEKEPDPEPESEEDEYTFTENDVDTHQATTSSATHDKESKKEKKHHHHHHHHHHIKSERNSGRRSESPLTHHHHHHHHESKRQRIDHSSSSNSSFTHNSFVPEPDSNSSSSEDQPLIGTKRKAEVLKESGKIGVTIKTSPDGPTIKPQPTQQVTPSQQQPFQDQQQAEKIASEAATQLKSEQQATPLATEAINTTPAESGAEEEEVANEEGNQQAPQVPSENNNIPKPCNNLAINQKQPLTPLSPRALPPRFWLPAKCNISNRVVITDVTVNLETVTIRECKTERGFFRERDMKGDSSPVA
PRC1ΔPh, sequence (Q9VB08 whole entry, stated change not applied, chain 3 of 3): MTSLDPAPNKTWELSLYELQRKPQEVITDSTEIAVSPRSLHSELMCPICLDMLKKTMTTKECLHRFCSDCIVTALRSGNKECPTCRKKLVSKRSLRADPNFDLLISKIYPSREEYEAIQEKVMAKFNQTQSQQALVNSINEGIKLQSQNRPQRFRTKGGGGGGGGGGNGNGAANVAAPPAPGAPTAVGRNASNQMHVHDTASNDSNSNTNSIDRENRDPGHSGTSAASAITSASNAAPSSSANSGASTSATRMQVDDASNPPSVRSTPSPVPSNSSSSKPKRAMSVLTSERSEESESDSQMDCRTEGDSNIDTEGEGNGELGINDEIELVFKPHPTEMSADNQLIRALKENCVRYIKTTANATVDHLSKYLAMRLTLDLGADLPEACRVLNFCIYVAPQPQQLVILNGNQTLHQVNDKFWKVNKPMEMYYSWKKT

B1: vg PRE dsDNA (dsDNA)
DNA 1: CGGGTTGTCAAGAATTTTAACGGCCATTTCTGTGAGTGTGTGCGAGCTGCCAAGTGTGTGTGAGTGTGTTTGTGACAAACGCAAGCTCATGTAAGTGCTC
DNA 2: GAGCACTTACATGAGCTTGCGTTTGTCACAAACACACTCACACACACTTGGCAGCTCGCACACACTCACAGAAATGGCCGTTAAAATTCTTGACAACCCG
Kd [1]: 6.44 nM | Kd [2]: 0.164 nM
